According to paper PMC10397247:

Tests used:
Assay in all cases: two-hybrid library CCmax;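 note: natural log of median RNA to DNA barcode read ratio; higher means stronger binding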
4H1513-AA = target: T1, 4H1513-AA
T1 chain: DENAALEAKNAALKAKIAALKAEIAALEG

4H2198-AA = target: T2, 4H2198-AA; details: mean of both orientations
T2 chain: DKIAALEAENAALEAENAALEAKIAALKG

4H2553-AA = target: T3, 4H2553-AA; details: mean of both orientations
T3 chain: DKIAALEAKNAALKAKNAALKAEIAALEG

4H3606-AA = target: T4, 4H3606-AA; details: mean of both orientations
T4 chain: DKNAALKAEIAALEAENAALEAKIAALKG

4H1629-AA = target: T5, 4H1629-AA; details: mean of both orientations
T5 chain: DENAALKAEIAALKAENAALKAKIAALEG

4H3378-AA = target: T6, 4H3378-AA; details: mean of both orientations
T6 chain: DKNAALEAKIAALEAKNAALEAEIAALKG

4H1845-AA = target: T7, 4H1845-AA; details: mean of both orientations
T7 chain: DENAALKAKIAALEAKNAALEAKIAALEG

4H2611-AA = target: T8, 4H2611-AA
T8 chain: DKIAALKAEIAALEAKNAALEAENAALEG

4H384-AA = target: T9, 4H384-AA; details: mean of both orientations
T9 chain: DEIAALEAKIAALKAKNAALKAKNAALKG

Q3-AA = target: T10, Q3-AA; details: mean of both orientations
T10 chain: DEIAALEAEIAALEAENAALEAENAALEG

4H2907-AA = target: T11, 4H2907-AA; details: mean of both orientations
T11 chain: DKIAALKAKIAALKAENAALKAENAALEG

Q8-AA = target: T12, Q8-AA; details: mean of both orientations
T12 chain: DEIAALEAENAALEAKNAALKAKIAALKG

4H3865-AA = target: T13, 4H3865-AA; details: mean of both orientations
T13 chain: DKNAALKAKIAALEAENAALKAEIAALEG

4H1594-AA = target: T14, 4H1594-AA; details: mean of both orientations
T14 chain: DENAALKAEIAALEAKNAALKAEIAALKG

4H3162-AA = target: T15, 4H3162-AA; details: mean of both orientations
T15 chain: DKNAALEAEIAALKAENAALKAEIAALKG

4H2944-AA = target: T16, 4H2944-AA; details: mean of both orientations
T16 chain: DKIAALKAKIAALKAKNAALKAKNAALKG

4H697-AA = target: T17, 4H697-AA; details: mean of both orientations
T17 chain: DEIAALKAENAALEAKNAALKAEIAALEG

4H340-AA = target: T18, 4H340-AA; details: mean of both orientations
T18 chain: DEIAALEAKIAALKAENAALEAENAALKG

4H982-AA = target: T19, 4H982-AA; details: mean of both orientations
T19 chain: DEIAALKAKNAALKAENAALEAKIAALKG

4H3588-AA = target: T20, 4H3588-AA; details: mean of both orientations
T20 chain: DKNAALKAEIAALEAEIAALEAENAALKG

4H3056-AA = target: T21, 4H3056-AA; details: mean of both orientations
T21 chain: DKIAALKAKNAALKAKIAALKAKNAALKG

4H2620-AA = target: T22, 4H2620-AA; details: mean of both orientations
T22 chain: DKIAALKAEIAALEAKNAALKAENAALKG

4H3133-AA = target: T23, 4H3133-AA; details: mean of both orientations
T23 chain: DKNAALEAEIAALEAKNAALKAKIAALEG

4H32-AA = target: T24, 4H32-AA; details: mean of both orientations
T24 chain: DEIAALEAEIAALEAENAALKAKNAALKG

4H3627-AA = target: T25, 4H3627-AA; details: mean of both orientations
T25 chain: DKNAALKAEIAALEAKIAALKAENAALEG

4H2648-AA = target: T26, 4H2648-AA; details: mean of both orientations
T26 chain: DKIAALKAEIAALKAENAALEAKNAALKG

4H1874-AA = target: T27, 4H1874-AA; details: mean of both orientations
T27 chain: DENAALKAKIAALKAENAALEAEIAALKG

Q7-AA = target: T28, Q7-AA; details: mean of both orientations
T28 chain: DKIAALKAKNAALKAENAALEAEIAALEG

4H3697-AA = target: T29, 4H3697-AA; details: mean of both orientations
T29 chain: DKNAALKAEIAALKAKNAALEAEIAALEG

4H3718-AA = target: T30, 4H3718-AA; details: mean of both orientations
T30 chain: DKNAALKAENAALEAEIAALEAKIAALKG

4H3631-AA = target: T31, 4H3631-AA; details: mean of both orientations
T31 chain: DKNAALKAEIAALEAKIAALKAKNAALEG

4H3413-AA = target: T32, 4H3413-AA; details: mean of both orientations
T32 chain: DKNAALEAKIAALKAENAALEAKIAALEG

DENAALEAKNAALKAKIAALKAEIAALEG [4H1513-AA] showed an interaction score (4H1513-AA) of -1.35, an interaction score (4H2198-AA) of 1.63 and an interaction score (4H2553-AA) of -1.64. It also gave an interaction score (4H3606-AA) of 0.638, an interaction score (4H1629-AA) of -1.62 and an interaction score (4H3378-AA) of -1.77. The interaction score (4H1845-AA) was -1.62, the interaction score (4H2611-AA) was -1.21 and the interaction score (4H384-AA) was -1.22. For the same binder, the interaction score (Q3-AA) was -1.16, the interaction score (4H2907-AA) was -1.65 and the interaction score (Q8-AA) was -1.06. For the same binder, the interaction score (4H3865-AA) was -1.9, the interaction score (4H1594-AA) was -1.55 and the interaction score (4H3162-AA) was -1.99. For the same binder, the interaction score (4H2944-AA) was -1.86, the interaction score (4H697-AA) was -1.68 and the interaction score (4H340-AA) was -1.57. It also gave an interaction score (4H982-AA) of -1, an interaction score (4H3588-AA) of -0.131 and an interaction score (4H3056-AA) of -1.71. The interaction score (4H2620-AA) was -1.68, the interaction score (4H3133-AA) was -1.2 and the interaction score (4H32-AA) was -0.712. The interaction score (4H3627-AA) was -0.0527, the interaction score (4H2648-AA) was -1.14 and the interaction score (4H1874-AA) was -1.02. For the same binder, the interaction score (Q7-AA) was -0.188, the interaction score (4H3697-AA) was -2.13 and the interaction score (4H3718-AA) was 1.82. It also gave an interaction score (4H3631-AA) of 0.267 and an interaction score (4H3413-AA) of -1.28.
